In the supplement of paper PMC7877785:
± gives the uncertainty stated by the source.

Assay: self-splicing fitness, log relative to wild type (ln ratio); higher = more splicing; Tetrahymena group I intron in knt gene, E. coli kanamycin selection, DiMSum; sequences stand for … in CUCUCU…GGAGGGAAAAGUUAUCAGGCAUGCACCUGGUAGCUAGUCUUUAAACCAAUAGAUUGCAUCGGUUUAAAAGGCAAGACCGUCAAAUUGCGGGAAAGGGGUCAACAGCCGUUCAGUACCAAGUCUCAGGGGAAACUUUGAGAUGGCCUUGCAAAGGGUAUGGUAAUAAGCUGACGGACAUGGUCCUAACCACGCAGCCAAGUCCUAAGUCAACAGAUCUUCUGUUGAUAUGGAUGCAGUUCACAGACUAAAUGUCGGUCGGGGAAGAUGUAUUCUUCUCAUAAGAUAUAGUCGGACCUCUCCUUAAUGGGAGCUAGCGGAUGAAGUGAUGCAACACUGGAGCCGCUGGGAACUAAUUUGUAUGCGAAAGUAUAUUGAUUAGUUUUGGAGUACUCGUGGUCG
Procedure, shortened: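 DiMSum derived fitness as the error-weighted combination of fold changes across replicates, kanamycin versus no kanamycin, normalised to wild type. E. coli BL21(DE3) held the library, which randomised all eight P1ex-region intron nucleotides within the knt kanamycin-resistance gene on pET-22b(+). Six replicate transformations grew overnight at 37°C or 30°C on LB agar with or without 25 μg/mL kanamycin, also containing 100 μg/mL carbenicillin, 50 μM IPTG and 0.2% rhamnose, and pooled colonies were amplicon-sequenced on an Illumina HiSeq 2500.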

Sequence | self-splicing fitness (ln) (30 °C) | self-splicing fitness (ln) (37 °C)
UGCCAGCAAUAUUACGUGAG | -2.12 ± 0.11 | -0.54 ± 0.097
UGCCAGCAAUAUUACGUGUU | -2.74 ± 0.1 | -1.67 ± 0.075
UGCCAGCAAUAUUACGUUAG | -2.26 ± 0.12 | -0.975 ± 0.13
UGCGAGCAAUAUUACGAGAG | -2.89 ± 0.15 | –
UGCGAGCAAUAUUACGAGGC | -2.74 ± 0.23 | -2 ± 0.23
UGCGAGCAAUAUUACGCGUC | -2.18 ± 0.26 | –
UGCGAGCAAUAUUACGCUAC | – | -0.55 ± 0.46
UGCGAGCAAUAUUACGGAUU | – | -3.08 ± 0.4
UGCGAGCAAUAUUACGGGAC | -3.69 ± 0.39 | -1.88 ± 0.23
UGCGAGCAAUAUUACGGGAU | -3.78 ± 0.35 | -2.21 ± 0.28
UGCGAGCAAUAUUACGGGUG | -1.72 ± 0.11 | -1.49 ± 0.12
UGCGAGCAAUAUUACGGUAC | -4.18 ± 0.3 | -3.26 ± 0.23
UGCGAGCAAUAUUACGGUAG | -3.36 ± 0.24 | -3.01 ± 0.32
UGCGAGCAAUAUUACGUAUU | -3.07 ± 0.17 | -2.58 ± 0.2
UGCGAGCAAUAUUACGUCUA | -0.974 ± 0.15 | -0.453 ± 0.17
UGCGAGCAAUAUUACGUGAU | -2.47 ± 0.23 | -2.09 ± 0.4
UGCUAGCAAUAUUACGAAUA | -1.27 ± 0.13 | -1.16 ± 0.12
UGCUAGCAAUAUUACGACCU | -0.548 ± 0.088 | -0.345 ± 0.1
UGCUAGCAAUAUUACGACUG | 0.165 ± 0.081 | 0.259 ± 0.11
UGCUAGCAAUAUUACGAGAG | -2.79 ± 0.22 | -2.13 ± 0.23

Sequence | self-splicing fitness (ln) (30 °C) | self-splicing fitness (ln) (37 °C)
UGCUAGCAAUAUUACGAUAA | -1.64 ± 0.15 | -0.358 ± 0.14
UGCUAGCAAUAUUACGAUUC | – | -2.33 ± 0.49
UGCUAGCAAUAUUACGCACG | -1.27 ± 0.12 | -1.18 ± 0.16
UGCUAGCAAUAUUACGCCAA | – | 0.0147 ± 0.24
UGCUAGCAAUAUUACGCUCC | -2.06 ± 0.23 | -0.757 ± 0.24
UGCUAGCAAUAUUACGGAUA | -1.44 ± 0.11 | -1.1 ± 0.13
UGCUAGCAAUAUUACGGCAU | -3.65 ± 0.28 | -2.37 ± 0.31
UGCUAGCAAUAUUACGGCGU | -3.57 ± 0.22 | -1.89 ± 0.17
UGCUAGCAAUAUUACGGCUA | -0.795 ± 0.17 | 0.345 ± 0.15
UGCUAGCAAUAUUACGGGCC | -1.55 ± 0.14 | -1.33 ± 0.15
UGCUAGCAAUAUUACGGGCG | -1.45 ± 0.1 | -1.82 ± 0.11
UGCUAGCAAUAUUACGGGGA | -0.989 ± 0.14 | 0.0335 ± 0.14
UGCUAGCAAUAUUACGGGGU | -2.82 ± 0.21 | -2.09 ± 0.21
UGCUAGCAAUAUUACGGUAU | -2.28 ± 0.1 | -2.43 ± 0.14
UGCUAGCAAUAUUACGUAGG | -2.18 ± 0.14 | -0.778 ± 0.2
UGCUAGCAAUAUUACGUGAU | -1.88 ± 0.13 | -1.39 ± 0.16
UGCUAGCAAUAUUACGUGUA | -1.74 ± 0.1 | -1.26 ± 0.1
UGCUAGCAAUAUUACGUUCC | – | -0.823 ± 0.42
UGCUAGCAAUAUUACGUUUC | -4.01 ± 0.42 | -2.06 ± 0.34
UGGAAGCAAUAUUACGAACC | -1.6 ± 0.13 | -0.663 ± 0.12
